Source: publication PMC3817407

Tests used:
ECF02_915 = biological target: T1, ECF02_915
T1 chain: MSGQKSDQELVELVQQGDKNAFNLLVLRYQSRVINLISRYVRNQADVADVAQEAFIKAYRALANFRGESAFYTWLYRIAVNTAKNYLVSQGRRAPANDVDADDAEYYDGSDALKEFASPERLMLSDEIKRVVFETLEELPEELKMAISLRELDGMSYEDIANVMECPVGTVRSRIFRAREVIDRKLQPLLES

ECF03_1244 = biological target: T2, ECF03_1244
T2 chain: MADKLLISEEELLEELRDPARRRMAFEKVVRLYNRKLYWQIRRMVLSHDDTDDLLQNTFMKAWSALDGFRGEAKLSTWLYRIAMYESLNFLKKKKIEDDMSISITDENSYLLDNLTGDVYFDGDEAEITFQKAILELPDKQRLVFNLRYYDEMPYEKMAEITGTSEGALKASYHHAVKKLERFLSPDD

ECF11_3726 = biological target: T3, ECF11_3726
T3 chain: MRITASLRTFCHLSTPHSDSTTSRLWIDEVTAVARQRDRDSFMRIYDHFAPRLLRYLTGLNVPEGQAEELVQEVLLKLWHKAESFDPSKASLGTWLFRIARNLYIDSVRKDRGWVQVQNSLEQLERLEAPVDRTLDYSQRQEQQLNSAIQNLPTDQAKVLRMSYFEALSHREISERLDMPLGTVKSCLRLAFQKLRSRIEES

ECF14_1324 = biological target: T4, ECF14_1324
T4 chain: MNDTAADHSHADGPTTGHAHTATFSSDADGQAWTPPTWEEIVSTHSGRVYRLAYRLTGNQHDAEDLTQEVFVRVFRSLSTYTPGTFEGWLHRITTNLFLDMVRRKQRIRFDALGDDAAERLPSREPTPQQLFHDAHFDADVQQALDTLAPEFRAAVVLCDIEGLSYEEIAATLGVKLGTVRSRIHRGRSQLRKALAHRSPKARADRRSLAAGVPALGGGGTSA

ECF14_3200 = biological target: T5, ECF14_3200
T5 chain: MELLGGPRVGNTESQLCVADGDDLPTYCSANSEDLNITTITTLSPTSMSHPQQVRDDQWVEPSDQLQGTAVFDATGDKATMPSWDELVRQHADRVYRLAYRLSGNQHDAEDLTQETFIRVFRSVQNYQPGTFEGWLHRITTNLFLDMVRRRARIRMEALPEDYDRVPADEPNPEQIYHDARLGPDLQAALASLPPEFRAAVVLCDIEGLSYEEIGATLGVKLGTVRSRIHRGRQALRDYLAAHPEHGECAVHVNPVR

ECF15_524 = biological target: T6, ECF15_524
T6 chain: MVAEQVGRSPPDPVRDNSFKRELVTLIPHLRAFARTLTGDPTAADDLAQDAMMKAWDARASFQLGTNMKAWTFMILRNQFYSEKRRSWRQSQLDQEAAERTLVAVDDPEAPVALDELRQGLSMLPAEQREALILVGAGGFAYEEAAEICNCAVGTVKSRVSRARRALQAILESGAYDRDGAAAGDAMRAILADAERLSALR

ECF20_992 = biological target: T7, ECF20_992
T7 chain: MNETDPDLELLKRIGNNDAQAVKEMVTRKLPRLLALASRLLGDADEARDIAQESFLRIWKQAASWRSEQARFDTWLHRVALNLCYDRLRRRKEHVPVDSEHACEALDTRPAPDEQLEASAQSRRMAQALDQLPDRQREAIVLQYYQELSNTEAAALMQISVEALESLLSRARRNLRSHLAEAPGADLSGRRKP

ECF25_1645 = biological target: T8, ECF25_1645
T8 chain: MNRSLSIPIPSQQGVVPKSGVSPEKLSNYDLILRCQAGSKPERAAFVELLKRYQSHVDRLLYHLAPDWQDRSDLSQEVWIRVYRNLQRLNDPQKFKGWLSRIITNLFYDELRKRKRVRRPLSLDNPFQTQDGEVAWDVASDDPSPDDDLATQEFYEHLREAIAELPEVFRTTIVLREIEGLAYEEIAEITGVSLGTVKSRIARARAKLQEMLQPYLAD

ECF30_35 = biological target: T9, ECF30_35
T9 chain: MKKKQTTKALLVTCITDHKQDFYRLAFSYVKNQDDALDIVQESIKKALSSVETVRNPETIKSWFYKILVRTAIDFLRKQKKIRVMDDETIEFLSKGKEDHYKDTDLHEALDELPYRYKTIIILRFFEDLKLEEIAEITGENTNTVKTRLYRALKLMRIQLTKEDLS

ECF31_34 = biological target: T10, ECF31_34
T10 chain: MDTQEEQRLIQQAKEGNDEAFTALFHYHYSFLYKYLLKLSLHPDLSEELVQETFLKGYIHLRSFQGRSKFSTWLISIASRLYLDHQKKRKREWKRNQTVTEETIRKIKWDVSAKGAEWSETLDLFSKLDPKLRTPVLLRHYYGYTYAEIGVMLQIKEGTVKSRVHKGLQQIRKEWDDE

ECF33_423 = biological target: T11, ECF33_423
T11 chain: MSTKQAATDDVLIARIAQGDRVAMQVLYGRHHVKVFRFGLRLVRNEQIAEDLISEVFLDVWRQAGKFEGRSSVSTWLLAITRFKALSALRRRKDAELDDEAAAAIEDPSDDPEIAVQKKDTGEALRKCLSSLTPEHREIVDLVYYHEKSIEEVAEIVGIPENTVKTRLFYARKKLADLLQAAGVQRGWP

ECF34_1384 = biological target: T12, ECF34_1384
T12 chain: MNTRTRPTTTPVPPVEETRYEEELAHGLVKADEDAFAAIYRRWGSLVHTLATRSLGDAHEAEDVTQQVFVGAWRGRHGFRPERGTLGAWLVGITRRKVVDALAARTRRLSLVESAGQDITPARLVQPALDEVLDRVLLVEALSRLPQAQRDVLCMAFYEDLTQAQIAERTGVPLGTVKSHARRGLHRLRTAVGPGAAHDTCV

ECF37_2513 = biological target: T13, ECF37_2513
T13 chain: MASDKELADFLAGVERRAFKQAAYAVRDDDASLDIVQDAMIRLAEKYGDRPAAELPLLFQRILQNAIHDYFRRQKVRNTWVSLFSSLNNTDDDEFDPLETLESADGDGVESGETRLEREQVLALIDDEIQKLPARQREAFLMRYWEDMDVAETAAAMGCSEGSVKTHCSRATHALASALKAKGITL

ECF38_1322 = biological target: T14, ECF38_1322
T14 chain: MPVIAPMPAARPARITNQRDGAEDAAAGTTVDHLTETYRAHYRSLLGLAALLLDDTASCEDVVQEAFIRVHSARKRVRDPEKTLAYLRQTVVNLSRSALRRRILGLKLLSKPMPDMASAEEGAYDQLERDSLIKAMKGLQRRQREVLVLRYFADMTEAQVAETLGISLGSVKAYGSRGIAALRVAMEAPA

B1: AS35_3582 (protein)
chain: MNPQKHSASVAEEQMLAHFRAHAPQQPAPALDQAILAAARRQAAHVEPARSWWRRWLEASRRPRWQAAFASLLGVALVLGLVSHNVLDDAERQARPEVAFSDVPLRDGVAGAAAAKRAMRAPAAPAPLSGEMSEPPALLASYASSGEAPQLMAEAAPPAPAALADRPPAQAAQQAKVQAALAGDFVAQARGKAVAVKPEVLDEALGAVLALREQGKTEQAATQLAELQKRFPGENLVERLERLATIAASARKRP
- fold repression (ECF02_915): 3.95
- fold repression (ECF03_1244): 4.18
- fold repression (ECF11_3726): 18.8
- fold repression (ECF14_1324): 13.1
- fold repression (ECF14_3200): 11.7
- fold repression (ECF15_524): 5.37
- fold repression (ECF20_992): 3.26
- fold repression (ECF25_1645): 3.79
- fold repression (ECF30_35): 2.03
- fold repression (ECF31_34): 5.2
- fold repression (ECF33_423): 3.76
- fold repression (ECF34_1384): 9.31
- fold repression (ECF37_2513): 8.97
- fold repression (ECF38_1322): 3.42

B2: AS31_34 (protein)
chain: MNKEKLSDHLKSEWKKIDQTANPSIPNQKELLHQLSQMKAEYRKKLLQEIILFVFCALMVVSAAILAFTQAPAVFIVLQVCVLAVLPILIAAEKKRHLGECEVKRG
- fold repression (ECF02_915): 1.32
- fold repression (ECF03_1244): 2.34
- fold repression (ECF11_3726): 5.86
- fold repression (ECF14_1324): 6.35
- fold repression (ECF14_3200): 2.7
- fold repression (ECF15_524): 2.19
- fold repression (ECF20_992): 2.35
- fold repression (ECF25_1645): 1.99
- fold repression (ECF30_35): 1.68
- fold repression (ECF31_34): 22.7
- fold repression (ECF33_423): 2.25
- fold repression (ECF34_1384): 2.98
- fold repression (ECF37_2513): 3.38
- fold repression (ECF38_1322): 2.06

B3: AS27_4265 (protein)
chain: MTGHPDVAEIADLAEGLLPTTRTTEVRQHLESCELCADVYASLTEIQGLLGTLPAPAPMPDDVAARIDAALAAEPPLGIADGTRVSRETSTPADRPAGHARPSSTGPGRKDRRRGGRRRIAVLGAVAAAAAIGIGSVVVSSLTEDSSSGNTAREQQTAIADTFSEGRLKDRVTNLVADGSAENGSRTPRSFGMESENGGETAENHVFKQPTVPECIRKGIGRDDAVIATEPGVYKGREALLVVLPDATNDTQVTAYIVETACVDQPAVGKAKILLEHSYARS
- fold repression (ECF02_915): 2.41
- fold repression (ECF03_1244): 1.38
- fold repression (ECF11_3726): 7.03
- fold repression (ECF14_1324): 3.08
- fold repression (ECF14_3200): 4.49
- fold repression (ECF15_524): 2.74
- fold repression (ECF20_992): 15.2
- fold repression (ECF25_1645): 1.02
- fold repression (ECF30_35): 5.45
- fold repression (ECF31_34): 1.67
- fold repression (ECF33_423): 1.63
- fold repression (ECF34_1384): 5.28
- fold repression (ECF37_2513): 2.03
- fold repression (ECF38_1322): 1.36

B4: AS30_35 (protein)
chain: MDKRLQQLREEYKNVQIPKELDIIVEKALQQEPKKKRIVMWPTSAAIAAAILFTALVNINPDAAQAMSKIPVIGKIVKAITFIEIKEEKDQSSIDVKTPALSGLSNKELENSINEKYLKESQQLYKEFIQSTSKNKKGHLSIYSDYETVTDTPDLLSIRRNIETTQASSYTQSRYITIDKKNDILLTLKSLFKDERYIKVISQNIKEQMKQQMKEDPNKIYWLTDEDAEPFKTILPDQTFYITEDHKLVISFDEYEVAPGYMGVTEFTIPTGVISNLLVGERYIR
- fold repression (ECF02_915): 2.15
- fold repression (ECF03_1244): 1.74
- fold repression (ECF11_3726): 2.09
- fold repression (ECF14_1324): 1.7
- fold repression (ECF14_3200): 1.91
- fold repression (ECF15_524): 1.74
- fold repression (ECF20_992): 2.34
- fold repression (ECF25_1645): 1.69
- fold repression (ECF30_35): 55.4
- fold repression (ECF31_34): 2.22
- fold repression (ECF33_423): 1.99
- fold repression (ECF34_1384): 2.04
- fold repression (ECF37_2513): 2.3
- fold repression (ECF38_1322): 1.84

B5: AS33_423 (protein)
chain: MMAMSNTMPDPREPGDVEALLPWYAAGTLNARDARRVADALDRDPALARQYAVILEEYASTIELNESLGAPSSRAMQKLFAAIDAEPARAPGAGQGLGARFAGFFAGLSPKALAWSASVAGLALLLQAGLIGALLTWPHAAPVQTAAYQPQREVARAPASSPAPATVSPPAAAMADRAADAGKSTPPMVMAERSGGPVVRSLAPQSGPRVLVKFAPEARASEIAALLDQYNAVVVDSSRGGLFRLQFGTQSLSKQDQETLIGRLQKEPVVSVVLSAP
- fold repression (ECF02_915): 4.97
- fold repression (ECF03_1244): 13.5
- fold repression (ECF11_3726): 29.3
- fold repression (ECF14_1324): 36
- fold repression (ECF14_3200): 12.2
- fold repression (ECF15_524): 9.15
- fold repression (ECF20_992): 14.2
- fold repression (ECF25_1645): 3.68
- fold repression (ECF30_35): 3.09
- fold repression (ECF31_34): 8.35
- fold repression (ECF33_423): 84.3
- fold repression (ECF34_1384): 8.97
- fold repression (ECF37_2513): 10
- fold repression (ECF38_1322): 5.66

B6: AS33_375 (protein)
chain: MMALSKKMLEQEPSEIELLLPWHAAGTLNARDARRVEDALARDPELAKQYAAIRGEYEETIHLNESLGAPSARAMQKLFGAIDAEPARETGSLPLSARIATFFASLSPRTLAWSASLGAVALVLQAGIIGAVLMKTQPTTFQTASLSTSAPITRELGAAVAPARALVRFTPEARVADITALLDSYQASIIGDAKGGMFRLQFDKAMSQDELASLLGRMQREKFVNLAVAAP
- fold repression (ECF02_915): 4.71
- fold repression (ECF03_1244): 16.3
- fold repression (ECF11_3726): 34.4
- fold repression (ECF14_1324): 44.6
- fold repression (ECF14_3200): 17.8
- fold repression (ECF15_524): 14.3
- fold repression (ECF20_992): 20.7
- fold repression (ECF25_1645): 5.35
- fold repression (ECF30_35): 4.68
- fold repression (ECF31_34): 9.28
- fold repression (ECF33_423): 113
- fold repression (ECF34_1384): 12.2
- fold repression (ECF37_2513): 13.5
- fold repression (ECF38_1322): 7.66
